For 19 molecules, Kd results are on record in patent US20230102344A1.

For experiment [1], the target named is human TCRvβ (BIM0444) (human). Description: SPR (Biacore): antibody captured via anti-human Fc on CM5, BIM0444 as analyte, 1:1 fit. Background: Surface plasmon resonance follows binding to a sensor surface in real time, without labels.
Experiment [2] has as its target cynomolgus TCRvβ (BJM0847) (cynomolgus). In words: SPR (Biacore): antibody captured on Protein L chip, BJM0847 as analyte, 1:1 fit.
The target is the same in experiment [3]. In words: SPR (Biacore): antibody amine-coupled to CM5, BJM0847 as analyte, 1:1 fit.

human TCRvβ (BIM0444) (human), sequence (A0A0K0K1A5 22-114): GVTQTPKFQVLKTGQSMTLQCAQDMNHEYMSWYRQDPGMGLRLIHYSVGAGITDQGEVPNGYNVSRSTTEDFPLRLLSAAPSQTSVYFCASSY

B1: BJM0502 (scFv, part only; not given: Fc scaffold making it bivalent, part only)
scFv, part: QVQLVQSGAEVKKPGSSVKVSCKASGHDFHLWYIHWVRQAPGQGLEWMGRVSAGSGNVKYNEKFKGRVTITADTSTSTAYMELSSLRSEDTAVYYCAGSYYSYDVLDYWGQGTTVTVSSGGGGSGGGGSGGGGSGGGGSDIQMTQSPSFLSASVGDRVTITCKASQNVDNKVAWHQQKPGKAPKALIYSSSHRYKGVPSRFSGSGSGTEFTLTISSLQPEDFATYFCQQFKSYPLTFGQGTKLEIK
Turning to B1, the Kd turned out to be 20 nM in experiment [1] and 387 nM in experiment [2].

B2: A-H.60 (scFv)
scFv: QVQLVQSGAEVKKPGSSVKVSCKASGHDFKLTYIHWVRQAPGQGLEWMGRVSAGSGNTKYNEKFKGRVTITADTSTSTAYMELSSLRSEDTAVYYCAVSYYSYDVLDYWGQGTTVTVSSGGGGSGGGGSGGGGSGGGGSDIQMTQSPSFLSASVGDRVTITCKASQNVGDRVAWHQQKPGKAPKALIYSSSHRYKGVPSRFSGSGSGTEFTLTISSLQPEDFATYFCQQFKSYPLTFGQGTKLEIK
Take B2: the Kd in experiment [1] came out at 0.445 nM; in experiment [2], 1.6 nM.

B3: A-H.13 (scFv)
scFv: QVQLVQSGAEVKKPGSSVKVSCKASGTDFKLTYIHWVRQAPGQGLEWMGRIFPGSGNVKYNEKFKGRVTITADTSTSTAYMELSSLRSEDTAVYYCAGSYYSYDVLDYWGQGTTVTVSSGGGGSGGGGSGGGGSGGGGSDIQMTQSPSFLSASVGDRVTITCKASQNVDNRVAWYQQKPGKAPKALIYSSSHRYKGVPSRFSGSGSGTEFTLTISSLQPEDFATYFCQQFKSYPLTFGQGTKLEIK
As for B3, the results for the Kd in experiment [1] and in experiment [3] were 3.8 nM and 173 nM, respectively.

B4: A-H.63 (scFv)
scFv: QVQLVQSGAEVKKPGSSVKVSCKASGHDFRLTYIHWVRQAPGQGLEWMGRVYAGSGNTKYNEKFKGRVTITADTSTSTAYMELSSLRSEDTAVYYCAVSYYSYDVLDYWGQGTTVTVSSGGGGSGGGGSGGGGSGGGGSDIQMTQSPSFLSASVGDRVTITCKASQNVEDRVVWHQQKPGKAPKALIYSSSHRYKGVPSRFSGSGSGTEFTLTISSLQPEDFATYFCQQFKSYPLTFGQGTKLEIK
Consider B4, for which the Kd in experiment [1] stood at 0.274 nM; in experiment [2], 5.8 nM.

B5: A-H.24 (scFv)
scFv: QVQLVQSGAEVKKPGSSVKVSCKASGHDFHLWYIHWVRQAPGQGLEWMGRVSAGSGNVKYNEKFKGRVTITADTSTSTAYMELSSLRSEDTAVYYCAGSYYSYDVLDYWGQGTTVTVSSGGGGSGGGGSGGGGSGGGGSDIQMTQSPSFLSASVGDRVTITCKASQNVDNKVAWHQQKPGKAPKALIYSSSHRYKGVPSRFSGSGSGTEFTLTISSLQPEDFATYFCQQFKSYPLTFGQGTKLEIK
As for B5, the Kd in experiment [1] is 12 nM.

B6: A-H.68 (scFv, not shown: a dimerising Fc or GST)
scFv: QVQLVQSGAEVKKPGSSVKVSCKASGHDFRLTYIHWVRQAPGQGLEWMGRISAGSGNVKYNEKFKGRVTITADTSTSTAYMELSSLRSEDTAVYYCAVSYYSYDVLDYWGQGTTVTVSSGGGGSGGGGSGGGGSGGGGSDIQMTQSPSFLSASVGDRVTITCKASQNVADRVAWYQQKPGKAPKALIYSSSHRYKGVPSRFSGSGSGTEFTLTISSLQPEDFATYFCQQFKSYPLTFGQGTKLEIK
As for B6, the Kd in experiment [1] amounted to 0.829 nM; in experiment [3], 59 nM.

B7: A-H.59 (scFv)
scFv: QVQLVQSGAEVKKPGSSVKVSCKASGHDFRLTYIHWVRQAPGQGLEWMGRIYAGSGNVKYNEKFKGRVTITADTSTSTAYMELSSLRSEDTAVYYCAVSYYSYDVLDYWGQGTTVTVSSGGGGSGGGGSGGGGSGGGGSDIQMTQSPSFLSASVGDRVTITCKASQNVADRVVWHQQKPGKAPKALIYSSSHRYKGVPSRFSGSGSGTEFTLTISSLQPEDFATYFCQQFKSYPLTFGQGTKLEIK
In the case of B7, the Kd in experiment [1] stood at 0.323 nM; in experiment [2], 5 nM.

B8: A-H.67 (scFv)
scFv: QVQLVQSGAEVKKPGSSVKVSCKASGTDFKLTYIHWVRQAPGQGLEWMGRIFPGSGNVKYNEKFKGRVTITADTSTSTAYMELSSLRSEDTAVYYCAVSYYSYDVLDYWGQGTTVTVSSGGGGSGGGGSGGGGSGGGGSDIQMTQSPSFLSASVGDRVTITCKASQNVDNRVAWYQQKPGKAPKALIYSSSHRYKGVPSRFSGSGSGTEFTLTISSLQPEDFATYFCQQFKSYPLTFGQGTKLEIK
B8 came in with a Kd in experiment [1] of 20 nM.

B9: A-H.23 (scFv, not shown: a dimerising Fc or GST)
scFv: QVQLVQSGAEVKKPGSSVKVSCKASGHDFRLTYIHWVRQAPGQGLEWMGRISAGSGNVKYNEKFKGRVTITADTSTSTAYMELSSLRSEDTAVYYCAGSYYSYDVLDYWGQGTTVTVSSGGGGSGGGGSGGGGSGGGGSDIQMTQSPSFLSASVGDRVTITCKASQNVADRVAWYQQKPGKAPKALIYSSSHRYKGVPSRFSGSGSGTEFTLTISSLQPEDFATYFCQQFKSYPLTFGQGTKLEIK
In turn, B9 gave a Kd in experiment [1] of 1.7 nM.

B10: A-H.66 (scFv)
scFv: QVQLVQSGAEVKKPGSSVKVSCKASGHDFKLTYIHWVRQAPGQGLEWMGRIYAGSGNTKYNEKFKGRVTITADTSTSTAYMELSSLRSEDTAVYYCAVSYYSYDVLDYWGQGTTVTVSSGGGGSGGGGSGGGGSGGGGSDIQMTQSPSFLSASVGDRVTITCKASQNVGDRVVWHQQKPGKAPKALIYSSSHRYKGVPSRFSGSGSGTEFTLTISSLQPEDFATYFCQQFKSYPLTFGQGTKLEIK
Take B10: the Kd in experiment [1] is 0.338 nM; in experiment [2], 2.2 nM.

B11: A-H.65 (scFv)
scFv: QVQLVQSGAEVKKPGSSVKVSCKASGHDFKLTYIHWVRQAPGQGLEWMGRISAGSGNTKYNEKFKGRVTITADTSTSTAYMELSSLRSEDTAVYYCAVSYYSYDVLDYWGQGTTVTVSSGGGGSGGGGSGGGGSGGGGSDIQMTQSPSFLSASVGDRVTITCKASQNVGDRVVWHQQKPGKAPKALIYSSSHRYKGVPSRFSGSGSGTEFTLTISSLQPEDFATYFCQQFKSYPLTFGQGTKLEIK
Regarding B11, the Kd in experiment [1] turned out to be 0.396 nM; in experiment [2] it was 0.725 nM.

B12: A-H.58 (scFv)
scFv: QVQLVQSGAEVKKPGSSVKVSCKASGHDFRLTYIHWVRQAPGQGLEWMGRVSAGSGNVKYNEKFKGRVTITADTSTSTAYMELSSLRSEDTAVYYCAVSYYSYDVLDYWGQGTTVTVSSGGGGSGGGGSGGGGSGGGGSDIQMTQSPSFLSASVGDRVTITCKASQNVGNRVVWHQQKPGKAPKALIYSSSHRYKGVPSRFSGSGSGTEFTLTISSLQPEDFATYFCQQFKSYPLTFGQGTKLEIK
On to B12, for which the Kd in experiment [1] was 0.491 nM; in experiment [2], 0.158 nM.

B13: A-H.62 (scFv)
scFv: QVQLVQSGAEVKKPGSSVKVSCKASGHDFRLTYIHWVRQAPGQGLEWMGRVSAGSGNVKYNEKFKGRVTITADTSTSTAYMELSSLRSEDTAVYYCAVSYYSYDVLDYWGQGTTVTVSSGGGGSGGGGSGGGGSGGGGSDIQMTQSPSFLSASVGDRVTITCKASQNVADRVVWHQQKPGKAPKALIYSSSHRYKGVPSRFSGSGSGTEFTLTISSLQPEDFATYFCQQFKSYPLTFGQGTKLEIK
Regarding B13, the results for the Kd in experiment [1] and in experiment [2] were 0.447 nM and 0.766 nM, respectively.

B14: A-H.57 (scFv)
scFv: QVQLVQSGAEVKKPGSSVKVSCKASGHDFRLTYIHWVRQAPGQGLEWMGRVSAGSGNTKYNEKFKGRVTITADTSTSTAYMELSSLRSEDTAVYYCAVSYYSYDVLDYWGQGTTVTVSSGGGGSGGGGSGGGGSGGGGSDIQMTQSPSFLSASVGDRVTITCKASQNVGDRVVWHQQKPGKAPKALIYSSSHRYKGVPSRFSGSGSGTEFTLTISSLQPEDFATYFCQQFKSYPLTFGQGTKLEIK
For B14, the Kd in experiment [1] is 0.469 nM; in experiment [2], 0.762 nM.

B15: A-H.64 (scFv)
scFv: QVQLVQSGAEVKKPGSSVKVSCKASGHDFKLTYIHWVRQAPGQGLEWMGRVSAGSGNTKYNEKFKGRVTITADTSTSTAYMELSSLRSEDTAVYYCAVSYYSYDVLDYWGQGTTVTVSSGGGGSGGGGSGGGGSGGGGSDIQMTQSPSFLSASVGDRVTITCKASQNVADRVVWHQQKPGKAPKALIYSSSHRYKGVPSRFSGSGSGTEFTLTISSLQPEDFATYFCQQFKSYPLTFGQGTKLEIK
Take B15: the Kd is 0.486 nM in experiment [1] and 1 nM in experiment [2].

B16: A-H.61 (scFv)
scFv: QVQLVQSGAEVKKPGSSVKVSCKASGHDFKLTYIHWVRQAPGQGLEWMGRVSAGSGNTKYNEKFKGRVTITADTSTSTAYMELSSLRSEDTAVYYCAVSYYSYDVLDYWGQGTTVTVSSGGGGSGGGGSGGGGSGGGGSDIQMTQSPSFLSASVGDRVTITCKASQNVDNRVAWHQQKPGKAPKALIYSSSHRYKGVPSRFSGSGSGTEFTLTISSLQPEDFATYFCQQFKSYPLTFGQGTKLEIK
For B16, the Kd was determined as 0.349 nM in experiment [1] and 0.607 nM in experiment [2].

B17: BJM0897 (antibody, V domains shown)
VH: QVQLVQSGAEVKKPGSSVKVSCKASGTDFKLTYIHWVRQAPGQGLEWMGRIFPGSGNVKYNEKFKGRVTITADTSTSTAYMELSSLRSEDTAVYYCAGSYYSYDVLDYWGQGTTVTVSS
VL: DIQMTQSPSFLSASVGDRVTITCKASQNVDNRVAWYQQKPGKAPKALIYSSSHRYKGVPSRFSGSGSGTEFTLTISSLQPEDFATYFCQQFKSYPLTFGQGTKLEIK
As to B17, the Kd in experiment [1] amounted to 7.2 nM; in experiment [2], 69 nM.

B18: BJM0899 (antibody, V domains shown)
VH: QVQLVQSGAEVKKPGSSVKVSCKASGHDFRLTYIHWVRQAPGQGLEWMGRISAGSGNVKYNEKFKGRVTITADTSTSTAYMELSSLRSEDTAVYYCAGSYYSYDVLDYWGQGTTVTVSS
VL: DIQMTQSPSFLSASVGDRVTITCKASQNVADRVAWYQQKPGKAPKALIYSSSHRYKGVPSRFSGSGSGTEFTLTISSLQPEDFATYFCQQFKSYPLTFGQGTKLEIK
For the molecule B18, the values for the Kd in experiment [1] and in experiment [2] were 3.7 nM and 130 nM, respectively.

B19: BJM0912 (antibody, V domains shown)
VH: QVQLVQSGAEVKKPGSSVKVSCKASGHDFHLWYIHWVRQAPGQGLEWMGRVSAGSGNVKYNEKFKGRVTITADTSTSTAYMELSSLRSEDTAVYYCAGSYYSYDVLDYWGQGTTVTVSS
VL: DIQMTQSPSFLSASVGDRVTITCKASQNVDNKVAWHQQKPGKAPKALIYSSSHRYKGVPSRFSGSGSGTEFTLTISSLQPEDFATYFCQQFKSYPLTFGQGTKLEIK
On to B19, for which the figures for the Kd in experiment [1] and in experiment [2] were 28 nM and 326 nM, respectively.

Usually Kd stands for the free concentration of one partner at which half of the binding sites on the other are occupied at equilibrium, for simple one-to-one binding. Read a low Kd as a tighter complex.
